In paper PMC10374969, “SVCT2/SLC23A2 is a sodium-dependent urate transporter: functional properties and practical application” (The Journal of Biological Chemistry, 2023):

What was measured:
[1] = tested on: T1, O=c1[nH]c(=O)c2[nH]c(=O)[nH]c2[nH]1; test: cells, lysate or membranes; assay type: cell-based, Mus musculus; conditions: pH 10, Na+ Krebs-Ringer buffer, 37 °C, 5 min, 0-3 mM urate (not saturated), labelled compound
T1 construct: full-length, 648 aa, C-terminal EGFP tag (pEGFP-N1), transiently expressed in HEK293 cells

[2] = tested on: T2, O=c1[nH]c(=O)c2[nH]c(=O)[nH]c2[nH]1; test: cells, lysate or membranes; assay type: cell-based, Homo sapiens; conditions: pH 10, Na+ Krebs-Ringer buffer, 37 °C, 5 min, 0-3 mM urate (not saturated), labelled compound
T2 construct: full-length wild type, 650 aa, C-terminal EGFP tag (pEGFP-N1), transiently expressed in HEK293 cells

| Substance | Km [1] [mM] | Km [2] [mM] |
| --- | --- | --- |
| mouse Svct2 (Svct2/Slc23a2) (Mus musculus) | 3.16 | – |
| human SVCT2 (SVCT2/SLC23A2) (Homo sapiens) | – | 3.86 |
